One data set concerns the target T1, RAR-alpha (UniProt P10276 P10276:1-462).
T1 sequence: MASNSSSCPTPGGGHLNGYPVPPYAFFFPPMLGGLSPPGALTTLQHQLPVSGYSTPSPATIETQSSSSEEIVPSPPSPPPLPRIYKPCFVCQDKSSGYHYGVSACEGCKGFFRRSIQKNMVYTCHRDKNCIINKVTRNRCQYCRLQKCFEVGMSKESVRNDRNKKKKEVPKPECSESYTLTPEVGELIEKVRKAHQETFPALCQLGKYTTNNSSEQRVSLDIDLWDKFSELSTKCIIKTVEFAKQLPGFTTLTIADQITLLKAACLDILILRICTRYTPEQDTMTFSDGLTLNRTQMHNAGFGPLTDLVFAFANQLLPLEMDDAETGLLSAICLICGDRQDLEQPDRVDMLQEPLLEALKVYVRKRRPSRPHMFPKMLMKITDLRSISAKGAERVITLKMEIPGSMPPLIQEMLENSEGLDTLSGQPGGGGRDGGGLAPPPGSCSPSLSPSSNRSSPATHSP
In words: EMSA; RAR alone did not produce the receptor-specific shift. To be noted: tags: TNT reticulocyte lysate from pGEM3Z RAR-alpha cDNA; label: end-labeled. The source says:
(§1) In vitro translated RAR-α was produced essentially as described under Example 8, except that ^35S-labeled methoinine was omitted. In vitro translated RXR-α was similarly produced using a pBluescript(II)(SK)-based vector containing the RXR-α cDNA described by Mangelsdorf, et al. in *Nature* 345:224–229 (1990) as the template for generating in vitro transcripts. The labeled RAR-α and RXR-α, alone or in combination, or prebound with AGN 193109 (10^-6M) either alone or in combination, were allowed to interact with an end-labeled DR-5 RARE double-stranded probe having the sequence 5'-[…]-3' (SEQ ID NO:1). The binding mixture was electrophoresed on a non-denaturing polyacrylamide gel and autoradiographed according to standard laboratory procedures. A single retarded species appearing on the autoradiograph that was common to all the lanes on the gel represented an undefined probe-binding factor present in the reticulocyte lysate. Only the RAR/RXR combination gave rise to a retinoid receptor-specific retarded species. Neither RAR alone nor RXR alone bound the probe to produce this shifted species.
Background: Mobility shift assays separate free from complexed probe on a gel.

The next data set deals with RXR-alpha (UniProt P19793 P19793:1-462). In words: EMSA; RXR alone did not produce the receptor-specific shift. To be noted: tags: reticulocyte lysate from pBluescript(II)(SK) RXR-alpha cDNA; label: end-labeled.
Chain of RXR-alpha (P19793 whole entry, one chain of several): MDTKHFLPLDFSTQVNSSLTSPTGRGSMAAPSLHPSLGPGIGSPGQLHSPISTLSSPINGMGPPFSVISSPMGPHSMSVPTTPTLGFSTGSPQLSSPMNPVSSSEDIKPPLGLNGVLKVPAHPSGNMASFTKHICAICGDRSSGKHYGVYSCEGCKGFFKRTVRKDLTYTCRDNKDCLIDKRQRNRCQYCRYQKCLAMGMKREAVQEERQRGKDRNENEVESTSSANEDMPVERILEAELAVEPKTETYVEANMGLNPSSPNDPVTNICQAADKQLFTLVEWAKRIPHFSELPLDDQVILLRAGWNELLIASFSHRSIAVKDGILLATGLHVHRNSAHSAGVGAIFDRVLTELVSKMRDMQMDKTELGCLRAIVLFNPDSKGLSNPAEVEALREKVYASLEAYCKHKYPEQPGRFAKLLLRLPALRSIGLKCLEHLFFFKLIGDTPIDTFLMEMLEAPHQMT
Text: as §1

B1: DR-5 RARE probe (dsDNA)
DNA 1: TCAGGTCACCAGGAGGTCAGA
DNA 2: TCTGACCTCCTGGTGACCTGA
Turning to B1, the binding result in the data set with RAR-alpha and with RXR-alpha was “no binding” in each case.

These data come from patent publication US5958954, “Synthesis and use of retinoid compounds having negative hormone and/or antagonist activities” (Allergan Sales, Inc.).
